The source of these data is patent publication US20130330359A1 (AbbVie / Abbott, published 2013).

Test [1] has as its target T1, carrier free RGMc (R&D Systems) (human, UniProt Q6ZVN8 36-400).
T1 construct: also called RGMc-CF
T1 sequence (looked up): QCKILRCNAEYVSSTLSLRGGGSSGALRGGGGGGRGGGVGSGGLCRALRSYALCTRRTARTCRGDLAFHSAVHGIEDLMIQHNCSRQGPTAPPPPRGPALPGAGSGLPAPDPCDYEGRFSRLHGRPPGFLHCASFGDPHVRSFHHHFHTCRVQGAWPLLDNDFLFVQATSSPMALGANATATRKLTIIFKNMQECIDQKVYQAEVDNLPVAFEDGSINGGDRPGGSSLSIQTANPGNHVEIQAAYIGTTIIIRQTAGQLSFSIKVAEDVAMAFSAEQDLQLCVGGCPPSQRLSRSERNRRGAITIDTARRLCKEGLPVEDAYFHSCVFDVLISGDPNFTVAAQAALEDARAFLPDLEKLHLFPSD
The test can be described thus: … two-step sandwich chemiluminescent assay; 1A-2493-121 on microparticles as capture, goat polyclonal AF3720 conjugate as detection.

Test [2] has as its target T2, RGMc antigen: amino acids 33-391 of RGMc followed by human Fc (human, UniProt Q6ZVN8 33-391).
T2 construct: also called RGMc-huFc; RGMc-Fc; not shown: human Fc
T2 sequence: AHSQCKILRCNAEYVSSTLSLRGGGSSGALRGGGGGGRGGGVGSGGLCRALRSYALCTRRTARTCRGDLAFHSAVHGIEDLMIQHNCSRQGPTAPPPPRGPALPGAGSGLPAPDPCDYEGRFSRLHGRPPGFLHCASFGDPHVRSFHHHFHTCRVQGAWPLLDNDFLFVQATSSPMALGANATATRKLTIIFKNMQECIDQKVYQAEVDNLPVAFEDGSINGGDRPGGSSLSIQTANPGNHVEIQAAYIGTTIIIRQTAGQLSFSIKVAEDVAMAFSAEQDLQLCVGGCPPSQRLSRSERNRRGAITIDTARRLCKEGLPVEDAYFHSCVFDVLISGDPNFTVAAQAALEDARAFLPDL
The test can be described thus: … two-step sandwich chemiluminescent assay; 1A-2493-121 on microparticles as capture, goat polyclonal AF3720 CPSP conjugate as detection. As for the experimental part:
The Architect assay is a two-step assay format, wherein a 30 μl sample is mixed with 50 μl of line diluent. […] At the end of 18 minutes, unbound sample is washed away. 50 μl of R&D System Goat polyclonal AF3720 CPSP conjugate at 800 ng/mL was added to the mixture, vortexed, and incubated for 4 minutes. […] The relative light units are then measured.

Test [3] addresses T3, carrier free RGMa (R&D Systems) (UniProt Q96B86 48-422, limits assumed).
T3 construct: also called RGMa-CF
T3 sequence (looked up): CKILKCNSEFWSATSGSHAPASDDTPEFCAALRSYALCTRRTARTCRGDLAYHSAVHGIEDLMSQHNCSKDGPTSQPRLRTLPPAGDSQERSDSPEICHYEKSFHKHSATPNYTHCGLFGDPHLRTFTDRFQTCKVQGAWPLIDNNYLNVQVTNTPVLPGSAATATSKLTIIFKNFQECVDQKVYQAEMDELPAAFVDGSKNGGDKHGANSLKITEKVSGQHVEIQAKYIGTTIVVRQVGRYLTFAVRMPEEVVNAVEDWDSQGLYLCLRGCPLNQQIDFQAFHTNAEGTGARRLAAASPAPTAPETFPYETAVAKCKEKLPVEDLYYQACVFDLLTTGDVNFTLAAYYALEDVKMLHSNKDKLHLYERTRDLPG
The test can be described thus: EIA on coated carrier-free RGMa (summary of specificity). The method, then: (§1) Clones were then tested for cross-reactivity with RGMa and RGMb by EIA. Carrier free RGMa, RGMb, or RGMc (R&D Systems) was coated on the solid phase of micro-titer EIA plates at 0.5 ug/mL. After the antigen had been coated on the solid phase, it was removed and any open binding sites on the plates were blocked using fish gel block solution. The wells were washed with distilled water following this incubation. Cell supernatants and control reagents were added to the blocked plates and allowed to incubate at room temperature for at least one hour. The negative control was a purified mouse mAb from a different antigen system. The positive control for RGMa, RGMb, & RGMc was a goat anti-RGMa, RGMb, or RGMc polyclonal antibody (R&D Systems). Following this incubation, the solutions were removed from the plates and they were washed with distilled water. Donkey anti-Goat IgG-HRPO diluted to approximately 200 ng/mL in block solution was added to the plates with the positive control test samples and goat anti-mouse IgG-HRPO (Jackson Immunoresearch) diluted to approximately 200 ng/mL in block solution was added to the plates with the fusion #1 test samples. All plates were allowed to incubate for 30 minutes at room temperature. The plates were washed with distilled water and o-phenylenediamine substrate was used as the chromogen to generate signal. Plates were read at 492 nm and the results were analyzed.

The target of test [4] is T4, carrier free RGMb (R&D Systems) (UniProt Q6NW40 46-413, limits assumed).
T4 construct: also called RGMb-CF
T4 sequence (looked up): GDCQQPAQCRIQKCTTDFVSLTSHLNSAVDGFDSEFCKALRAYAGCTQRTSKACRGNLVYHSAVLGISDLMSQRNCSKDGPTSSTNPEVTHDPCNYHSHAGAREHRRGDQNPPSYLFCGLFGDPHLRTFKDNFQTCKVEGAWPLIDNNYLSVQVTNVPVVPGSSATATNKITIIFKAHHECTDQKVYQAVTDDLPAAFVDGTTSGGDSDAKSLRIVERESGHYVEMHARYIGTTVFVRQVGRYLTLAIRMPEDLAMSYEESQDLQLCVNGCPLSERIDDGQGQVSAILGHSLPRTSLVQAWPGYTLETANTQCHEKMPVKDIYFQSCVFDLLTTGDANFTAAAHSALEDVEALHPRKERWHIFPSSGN
Put plainly: EIA on coated carrier-free RGMb (summary of specificity). As for the experimental part: as §1

In test [5] the target is T2, RGMc antigen: amino acids 33-391 of …. The test can be described thus: chemiluminescence immunoassay: supernatant mAb captured on sheep anti-mouse IgG Fc, RGMc-huFc at 200 ng/mL, acridinium-labeled goat anti-RGMc detection. As for the experimental part: Cell supernatant samples were analyzed for anti-RGMc antibodies by Chemiluminescence immunoassay (CIA). Sheep anti-mouse IgG Fc (Jackson Immunoresearch, West Grove, Pa.) was coated on 96 well micro-titer CIA plates (NUNC) at 5 ug/mL. After the capture reagent had been coated on the solid phase, it was removed and any open binding sites on the plates were blocked using a Fish gel/PBS (2% v/v) block solution. The wells were washed with distilled water and cell supernatants were added to the blocked plates and allowed to incubate at room temperature for at least one hour. The anti-mouse IgG Fc captures the anti-RGMc mouse antibody from the supernatant. Following the incubation, the supernatants were washed off using distilled water. A mouse/human IgG chimeric antibody (Abbott Laboratories) diluted in fish gel block to 5 ug/ml was added to each well and incubated for approximately 30 minutes at room temperature to block any captured mAbs that are specific for human IgG Fc portion of the immunogen. Following the incubation, the human IgG blocking solution was washed off using distilled water. RGMc-huFc antigen was then added to the plates at 200 ng/mL in fish gel block and incubated for 30 minutes at room temperature. Following this incubation, the antigen was washed from the plates using distilled water. Acridinium labeled goat anti-RGMc polyclonal antibody (R&D Systems, Minneapolis, Minn.) was diluted to 200 ng/ml in fish gel block, then added to the plates and allowed to incubate for 30 minutes at room temperature. The plates were washed with distilled water then processed on the Microbeta Jet instrument (Perkin Elmer, Waltham, Mass.). The Microbeta Jet adds Architect© Pre-Trigger and Trigger solutions (Abbott Laboratories). The plates are then read for flash chemiluminescence in luminescent counts per second (LCPS). […] The positive control (PC) used in this assay was spent medium from unfused splenocytes harvested from mouse #814 that were cultured for 7 to 10 days at 37° C.

Test [6] has the same target. Put plainly: direct EIA: RGMc-huFc coated at 1.0 ug/mL; supernatant diluted 1:125; goat anti-mouse IgG Fc-HRPO. As for the experimental part:
(§2) A mouse:human chimeric antibody or RGMc-huFc was coated on the solid phase of micro-titer EIA plates at 1.0 ug/mL. After the antigen had been coated on the solid phase, it was removed and any open binding sites on the plates were blocked using BSA block solution. The wells were washed with distilled water. Cell supernatants and control reagents were added to the blocked plates and allowed to incubate at room temperature for at least one hour. The negative control was a purified mAb from a different antigen system. The positive control for human IgG was a purified anti-hu IgG mAb developed against another antigen containing human IgG Fc carrier protein. The RGMc positive control is Novus mab 1C12. Following this incubation, the solutions were removed from the plates and they were washed with distilled water. Goat anti-mouse IgG Fc-HRPO (Jackson Immunoresearch) diluted to approximately 200 ng/mL in block solution was added to the plates and allowed to incubate for 30 minutes at room temperature. The plates were washed with distilled water and o-phenylenediamine substrate (Abbott Laboratories) was used as the chromogen to generate signal. Plates were read at 492 nm and the results were analyzed.

Test [7] has as its target T5, mouse:human chimeric antibody (used as human IgG / human IgG Fc antigen).
T5 construct: also called Hu IgG; human IgG Fc portion
Put plainly: direct EIA: mouse:human chimeric antibody coated at 1.0 ug/mL; supernatant diluted 1:125; goat anti-mouse IgG Fc-HRPO. The method, then:
as §2

B1: anti-RGMc 1A-2493-121 monoclonal antibody (antibody, V domains shown)
VH: DVQLQASGPDLVKPSQSLSLTCTVTGYSITSGYSWHWIRQFPGNKLEWMAYIHYTGDSNYNPSLKSRISITRDTSKNQFFLQLTSVTTEDTATYYCALFGLSGYWGQGTLVTVSA
VL: DVLMTQTPLSLPVSLGDQASISCRSSQNIIHSNGNTYLDWYLQKPGQSPKVLIYKVSNRFSGVPDRFSGSGSGTDFILKISRVEAEDLGVYYCLQGSHVPWTFGGGTKLEIKR
On to B1, for which the binding result in test [1] and in test [2] was “binds” each time.

B2: 1A-2258-107 (antibody, V domains shown)
VH: EVQLVESGGGLVKPGGSLKLSCAASGFTFSDYFMFWVRQTPEKRLEWVATISDGGSYTYYSDSVKGRFTISRDNAKNNLFLQMSSLKSEDTAMYYCARDKYGDYDAMDYWGQGTSVTVSS
VL: DVVLTQSPASLAVSLGQRATISCKASQSVDYDSDSYMNWYQQKPGQPPKLLIYAASNLESGIPARFSGGGSGTDFTLNIHPVEEEDAATYYCQQSNEDPPTFGGGTKLEIKR
In the case of B2, the binding result in test [3] and in test [4] was “no binding” throughout. In test [5], the LCPS turned out to be 2640 LCPS.

B3: 1A-2151-163 (antibody, V domains shown)
VH: EVQLQQSGPELLKPGASVKISCKASGYSFTDNTIHWVKQSQRKSLEWIGGISPRYGDIRYNVQFKDKATLTVDKSSSTAYMELRSLTSEDSAVYYCTRWDDGYYEDYAMDYWGQGTSVTVSS
VL: DILLTQSPAILSVSPGERVSFSCRASQSIGTSLHWYQQRRNGSPRLLIKYASESISGIPSRFSGSGSGTDFTLSINTVESEDIADYYCQQSNSWPYTFGGGTKLEIKR
With B3, the binding result in test [3] and in test [4] was “no binding” throughout. Also, the “absorbance at 492 nm” value amounted to 1.25 in test [6] and 0.07 in test [7]. Also, the LCPS in test [5] came to 4390 LCPS.
